Biological target: Stat1, unphosphorylated, endogenous in 293 T cells (human (endogenous in 293 T)) (UniProt P42224)
Chain of UniProt P42224 (P42224 whole entry): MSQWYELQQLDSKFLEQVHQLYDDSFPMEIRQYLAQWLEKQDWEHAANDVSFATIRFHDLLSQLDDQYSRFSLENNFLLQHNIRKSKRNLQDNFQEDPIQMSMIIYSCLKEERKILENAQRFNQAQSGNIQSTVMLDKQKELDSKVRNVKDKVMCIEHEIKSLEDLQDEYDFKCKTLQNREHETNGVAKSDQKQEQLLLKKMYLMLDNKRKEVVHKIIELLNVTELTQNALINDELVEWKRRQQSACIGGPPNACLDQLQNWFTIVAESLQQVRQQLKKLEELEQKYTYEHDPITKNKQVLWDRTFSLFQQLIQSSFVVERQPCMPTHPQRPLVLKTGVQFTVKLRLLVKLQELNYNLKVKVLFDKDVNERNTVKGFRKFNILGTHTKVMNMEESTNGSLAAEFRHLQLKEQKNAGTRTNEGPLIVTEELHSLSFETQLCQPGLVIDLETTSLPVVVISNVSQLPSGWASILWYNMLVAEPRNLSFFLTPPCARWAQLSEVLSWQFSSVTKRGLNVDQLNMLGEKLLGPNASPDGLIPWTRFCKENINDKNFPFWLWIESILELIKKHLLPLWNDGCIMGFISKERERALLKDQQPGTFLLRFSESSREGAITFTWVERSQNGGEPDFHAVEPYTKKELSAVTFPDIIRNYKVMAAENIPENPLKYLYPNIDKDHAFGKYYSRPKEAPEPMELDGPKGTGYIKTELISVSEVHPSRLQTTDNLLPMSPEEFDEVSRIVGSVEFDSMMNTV

| Substance | percent of F170S HPIV1-infected Vero cells positive for nuclear Stat1 after IFN-β (1,000 IU/mL, 60 min), confocal microscopy (untagged C proteins made by the virus; Stat1 of Vero cells) [%] | percent of WT HPIV1-infected Vero cells positive for nuclear Stat1 after IFN-β (1,000 IU/mL, 60 min), confocal microscopy (untagged C proteins made by the virus; Stat1 of Vero cells) [%] |
| --- | --- | --- |
| myc-tagged HPIV1 C′ protein with the F170S substitution (C′^F170S-myc) (natural protein) | 82 |  |
| myc-tagged HPIV1 C′ protein, wild type (C′^WT-myc) (natural protein) |  | 2 |

From article PMC3280236
